Tests used:
[1] = molecular target: human GPC3 on SK-HEP-1-huGPC3 cells (human) (UniProt P51654); assay: flow cytometry on SK-HEP-1-huGPC3 cells, PE anti-mouse IgG Fc
[2] = molecular target: cynomolgus monkey GPC3 on SK-HEP-1-cmGPC3 cells (cynomolgus monkey); assay: flow cytometry on SK-HEP-1-cmGPC3 cells, PE anti-mouse IgG Fc
[3] = molecular target: mouse GPC3 on SK-HEP-1-muGPC3 cells (mouse) (UniProt Q8CFZ4); assay: flow cytometry on SK-HEP-1-muGPC3 cells, PE anti-mouse IgG Fc
Sequence of mouse GPC3 on SK-HEP-1-muGPC3 cells (mouse) (Q8CFZ4 25-553 limits assumed): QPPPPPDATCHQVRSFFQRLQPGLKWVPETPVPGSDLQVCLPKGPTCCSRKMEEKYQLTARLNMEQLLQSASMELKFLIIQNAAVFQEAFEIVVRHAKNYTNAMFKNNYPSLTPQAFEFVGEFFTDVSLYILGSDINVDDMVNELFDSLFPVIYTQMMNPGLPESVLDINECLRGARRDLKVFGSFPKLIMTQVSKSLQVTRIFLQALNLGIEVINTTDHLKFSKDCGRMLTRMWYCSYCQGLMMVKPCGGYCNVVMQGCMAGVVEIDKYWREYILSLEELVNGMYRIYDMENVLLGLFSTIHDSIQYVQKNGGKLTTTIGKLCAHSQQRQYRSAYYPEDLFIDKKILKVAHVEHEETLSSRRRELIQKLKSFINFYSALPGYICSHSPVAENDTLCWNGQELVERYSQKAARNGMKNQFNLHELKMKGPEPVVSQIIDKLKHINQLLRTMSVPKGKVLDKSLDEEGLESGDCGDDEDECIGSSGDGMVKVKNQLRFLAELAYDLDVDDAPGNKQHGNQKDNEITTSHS

Substance: ISOTYPE (antibody)
- Positive population, % [1]: 0.85%
- Positive population, % [2]: 0.43%
- Positive population, % [3]: 0.91%
